The target in this assay is CD22. Description: BLI. Background: BLI is a label-free optical method that tracks binding on a fibre tip over time.

pKd: −log10 of the molar value.

The results in this text go back to patent US12214052.

The term pKd denotes the negative decadic logarithm of the Kd, by convention in mol/L. Low readings indicate a large Kd, high ones a small Kd.

As for Epratuzumab Fab, the pKd is 7.23.

Epratuzumab Fab-Ferritin: the pKd was 7.29.
